Measured values reported in the supplement of paper PMC9233669.
Variants at the floor of the assay were thinned out.

Key:
biotinyl-Phe-oxazolone = test: self-aminoacylation, catalytic enhancement (BFO) (fold over background); higher = more active; k-Seq, kA / k0A0; sequences stand for … in GGGAAUGGAUCCACAUCUACGAAUUC…UUCACUGCAGACUUGACGAAGCUG
Method in brief: (§1)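 Mutagenized RNA pools with a 21-nt variable region (0.43 μM) reacted with each biotinyl-aminoacyl-oxazolone at 2–1250 μM. Reactions ran in 50 μL HEPES/NaCl/KCl/MgCl2/CaCl2 buffer with 5% acetonitrile, pH 6.9–7.0, for 90 minutes at room temperature. Streptavidin-captured RNA was quantified by triplicate qPCR and Illumina sequencing, and per-sequence fraction reacted was fit to a pseudo-first-order model with 1000 bootstraps. Catalytic enhancement is median kA divided by the uncatalyzed rate, the low-activity peak of a bimodal Gaussian fit.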

biotinyl-Val-oxazolone = test: self-aminoacylation, catalytic enhancement (BVO) (fold over background); higher = more active; k-Seq, kA / k0A0; sequences stand for … in GGGAAUGGAUCCACAUCUACGAAUUC…UUCACUGCAGACUUGACGAAGCUG
Method in brief: as §1

biotinyl-Trp-oxazolone = test: self-aminoacylation, catalytic enhancement (BWO) (fold over background); higher = more active; k-Seq, kA / k0A0; sequences stand for … in GGGAAUGGAUCCACAUCUACGAAUUC…UUCACUGCAGACUUGACGAAGCUG
Method in brief: as §1

biotinyl-Leu-oxazolone = test: self-aminoacylation, catalytic enhancement (BLO) (fold over background); higher = more active; k-Seq, kA / k0A0; sequences stand for … in GGGAAUGGAUCCACAUCUACGAAUUC…UUCACUGCAGACUUGACGAAGCUG
Method in brief: as §1

biotinyl-Met-oxazolone = test: self-aminoacylation, catalytic enhancement (BMO) (fold over background); higher = more active; k-Seq, kA / k0A0; sequences stand for … in GGGAAUGGAUCCACAUCUACGAAUUC…UUCACUGCAGACUUGACGAAGCUG
Method in brief: as §1

biotinyl-Ile-oxazolone = test: self-aminoacylation, catalytic enhancement (BIO) (fold over background); higher = more active; k-Seq, kA / k0A0; sequences stand for … in GGGAAUGGAUCCACAUCUACGAAUUC…UUCACUGCAGACUUGACGAAGCUG
Method in brief: as §1

| Sequence | self-aminoacylation (biotinyl-Phe-oxazolone) | self-aminoacylation (biotinyl-Val-oxazolone) | self-aminoacylation (biotinyl-Trp-oxazolone) | self-aminoacylation (biotinyl-Leu-oxazolone) | self-aminoacylation (biotinyl-Met-oxazolone) | self-aminoacylation (biotinyl-Ile-oxazolone) |
| --- | --- | --- | --- | --- | --- | --- |
| AUUACCCAGGUGAUCGAGUGA [Fam2.1 aminoacylation ribozyme variant] | 29.3 | 2.33 | 6.02 | 4.3 | 4.68 | 2.39 |
| CUACCUCAAACAAUCGGUGUG [Fam1A.1 aminoacylation ribozyme variant] | 0.583 | 1.11 | 0.845 | 2.02 | 0.952 | 1.19 |
| CUACACUUCAAGCAAUCGAUC [Fam1B.1 aminoacylation ribozyme variant] | 2.02 | 0.649 | 0.769 | 0.458 | 0.404 | 0.527 |
| CUUCUUCAAACAAUCGCUCUG [Fam1A.1 aminoacylation ribozyme variant] | 1.72 | 0.928 | 1.55 | 0.823 | 0.85 | 0.783 |
| AUUCACCAAGGUCAUCGAGUG [Fam2.2 aminoacylation ribozyme variant] | 14.4 | 2.23 | 2.57 | 4.52 | 4.1 | 2.27 |
| AUUGCCCUGGUCAUAGAGUGA [Fam2.1 aminoacylation ribozyme variant] | 57.9 | 4.65 | 10.9 | 8.58 | 9.01 | 4.05 |
| AAGUUUGCUAAUGGUAGCAAG [Fam3.1 aminoacylation ribozyme variant] | 1.12 | 0.994 | 0.649 | 0.692 | 0.976 | 1.02 |
| AUGCACCUAGUUCAUCGGGUG [Fam2.2 aminoacylation ribozyme variant] | 13.6 | 2.37 | 4.29 | 3.07 | 2.73 | 2.77 |
| AUUACUCUGCUCAUCGAGUGA [Fam2.1 aminoacylation ribozyme variant] | 2.12 | 1.3 | 1.92 | 1.57 | 1.58 | 1.29 |
| AAGUUCGCUAAUAGUCGCAAG [Fam3.1 aminoacylation ribozyme variant] | 6.36 | 1.81 | 2.94 | 1.94 | 1.91 | 2.04 |
| CCACACUUCAAACAAGCGGUC [Fam1B.1 aminoacylation ribozyme variant] | 0.971 | 0.746 | 0.603 | 0.728 | 0.68 | 0.922 |
| UUACUUCAAAGAAUCGGUCUG [Fam1A.1 aminoacylation ribozyme variant] | 2.71 | 1.08 | 2.03 | 1.57 | 1.24 | 1.34 |
| AGUACCCUGGUCUUCGAGUGA [Fam2.1 aminoacylation ribozyme variant] | 31.2 | 3.27 | 7.11 | 5.96 | 5.41 | 3.54 |
| AUUCACCUCGGUCAUCGGGUU [Fam2.2 aminoacylation ribozyme variant] | 13.3 | 2.41 | 2.53 | 2.47 | 2.44 | 2.15 |
| AAGUUUGCUAAUAGUCGUAAC [Fam3.1 aminoacylation ribozyme variant] | 1.02 | 0.822 | 0.778 | 0.68 | 0.658 | 0.726 |
| CCACACUUCAAGGUAUCGGUC [Fam1B.1 aminoacylation ribozyme variant] | 0.829 | 0.995 | 1.28 | 0.907 | 0.95 | 0.941 |
| AAGCUUGCUAAUGGUCGCAAG [Fam3.1 aminoacylation ribozyme variant] | 2.3 | 1.76 | 3.95 | 1.83 | 2.83 | 1.77 |
| CUACUUCAAAUAAUCGGUCAG [Fam1A.1 aminoacylation ribozyme variant] | 6.75 | 0.83 | 3.24 | 0.708 | 0.675 | 0.755 |
| AUUACGCUGGUCAACGAGUGA [Fam2.1 aminoacylation ribozyme variant] | 5.51 | 2.71 | 3.71 | 3 | 3.33 | 2.42 |
| AUUCUCCUAGGUCAUCGCGUG [Fam2.2 aminoacylation ribozyme variant] | 170 | 12.2 | 20.6 | 27.3 | 20.9 | 11.4 |
| CUACCGCAAACAAUCGGUCUG [Fam1A.1 aminoacylation ribozyme variant] | 2.36 | 0.961 | 0.689 | 0.896 | 0.981 | 0.857 |
| AUUCACCGAGGUCAUCGGGUU [Fam2.2 aminoacylation ribozyme variant] | 9.59 | 2.84 | 2.7 | 3.15 | 2.61 | 2.26 |
